± gives the uncertainty stated by the source.
Experiment: protein stability index of a GFP-peptide fusion (yeast GPS) (PSI 1-4); higher = more stable; sorted into four equal gates, so the index is relative within each strain
Method in brief: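 Sequencing reads from sorted gates were used to score each peptide. The library consisted of tiled 17-residue yeast protein peptides fused downstream of GFP on a Cherry-expressing plasmid, pooled and carried in yeast. Mid-log cultures in leucine-free medium were split into four equal gates by GFP/Cherry ratio, and each gate's plasmids were PCR-amplified and Illumina-sequenced. The protein stability index adds up, over all gates, the read frequency multiplied by the gate number.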

Row | Sequence | protein stability index (doa10∆) | protein stability index (pdr5∆) | protein stability index (san1∆) | protein stability index (ubr1∆)
1 | QQMIITRLKSLLKPFHV [SIR3] | 2.17 ± 0.07 | 2.08 ± 0.053 | 2 ± 0.073 | 1.99 ± 0.035
2 | VNADDDDFMHSETREKE [RPB4] | 2.7 ± 0.089 | 2.61 ± 0.06 | 2.35 ± 0.089 | 1.99 ± 0.062
3 | QHHVTDADKLSFNCENF [YML031W/NDC1] | 2.45 ± 0.065 | 2.28 ± 0.053 | 2.3 ± 0.058 | 2.2 ± 0.058
4 | SPYNADFDGDEMNLHVP [RPO21] | 3.15 ± 0.076 | 3.27 ± 0.068 | 3.15 ± 0.078 | 3.1 ± 0.061
5 | TDSSALTYDRLEFATIR [PRE9] | 3.07 ± 0.081 | 3.27 ± 0.076 | 3.01 ± 0.056 | 3.18 ± 0.045
6 | GGCDYIFSLLTGYPDEP [CYT1] | 3.42 ± 0.14 | 3.39 ± 0.15 | 2.77 ± 0.081 | 3.08 ± 0.081
7 | FTLLDFKKQMQTIMKMG [SRP54] | 1.36 ± 0.13 | 2.67 ± 0.15 | 1.42 ± 0.17 | 2.71 ± 0.17
8 | QLNCIDTQFTKLLDDNP [SRB8] | 2.44 ± 0.074 | 2.7 ± 0.068 | 2.57 ± 0.065 | 2.9 ± 0.048
9 | ETYVASYVVPRLYLKDQ [ECM29] | 2.46 ± 0.1 | 1.93 ± 0.088 | 1.91 ± 0.24 | 2.32 ± 0.054
10 | MNMFGGGMGGGMGGGMP [SRP54] | 1.38 ± 0.055 | 2.43 ± 0.21 | 1.69 ± 0.17 | 1.53 ± 0.18
11 | ELAQDPQTMEHYKQQIA [YCS4] | 2.31 ± 0.055 | 2.65 ± 0.077 | 2.1 ± 0.1 | 2.4 ± 0.06
12 | KRNKYAAMLTSENAREI [RRP45] | 3.04 ± 0.063 | 3.1 ± 0.063 | 3.08 ± 0.057 | 2.96 ± 0.043
13 | VNDRSDISDSEGGLFEC [PCI8] | 3.38 ± 0.2 | 3.11 ± 0.12 | 3.45 ± 0.071 | 3.08 ± 0.11
14 | MAPSAKATAAKKAVVKG [RPL25] |  | 2.56 ± 0.15 |  | 
15 | SYVVPRLYLKDQTNHIE [ECM29] | 2.62 ± 0.076 | 1.83 ± 0.046 | 2.83 ± 0.056 | 2.15 ± 0.033
16 | LDKNLIKLVKQNDELKF [RPC34] | 1.16 ± 0.077 | 1.21 ± 0.073 | 1.43 ± 0.18 | 2.18 ± 0.1
17 | KYDRILKEVPTYRYVSV [RPS25A] |  |  | 2.87 ± 0.22 | 2.89 ± 0.14
18 | ALYRVNDLRDMILNYNP [UBP6] | 2.81 ± 0.12 | 2.73 ± 0.19 | 2.81 ± 0.17 | 2.99 ± 0.12
19 | ILSVKLAELINMTTIAD [SRB6] | 2.6 ± 0.072 | 2.46 ± 0.076 | 2.75 ± 0.069 | 2.85 ± 0.068
20 | GKGRQSAKAELEKLVDH [PRE10] | 1.82 ± 0.099 | 2.19 ± 0.072 | 1.59 ± 0.28 | 1.14 ± 0.088

Row | Sequence | protein stability index (doa10∆) | protein stability index (pdr5∆) | protein stability index (san1∆) | protein stability index (ubr1∆)
21 | VHPDYLYGAITEDRYNE [FAS2] | 1.08 ± 0.092 | 1.34 ± 0.097 | 1.14 ± 0.15 | 1.27 ± 0.086
22 | AGEFGLKNKKEIYRISF [RPS9A] | 2.58 ± 0.065 | 2.95 ± 0.089 | 3.08 ± 0.14 | 2.77 ± 0.066
23 | FKKQMQTIMKMGPLSNI [SRP54] | 2.59 ± 0.11 | 3.14 ± 0.074 | 3.03 ± 0.1 | 2.92 ± 0.072
24 | MFLYILKHLEEMGKLRE [RRI2] | 3.11 ± 0.11 | 3.16 ± 0.11 | 3.04 ± 0.078 | 3.16 ± 0.051
25 | EFNFTNLQAKPLVGKPK [YAR002W/NUP60] | 2.1 ± 0.06 | 2.35 ± 0.055 | 2.27 ± 0.077 | 2.25 ± 0.042
26 | FEWDISNSDNCPEEFAE [SNF5] | 3.12 ± 0.11 | 3.19 ± 0.15 | 3.11 ± 0.1 | 3.29 ± 0.072
27 | GVFDPASYAKYLIDHIK [RPL22A] | 2.73 ± 0.25 |  | 3.35 ± 0.16 | 
28 | QVGLNFELSFTGAPPYY [YMR129W/POM152] | 2.35 ± 0.053 | 2.08 ± 0.061 | 1.58 ± 0.061 | 1.93 ± 0.031
29 | HKSPNLSLMLESPNYCN [SRB4] | 2.28 ± 0.078 | 2.65 ± 0.1 | 2.64 ± 0.095 | 2.71 ± 0.06
30 | KSTASTAAANTEKLSNG [YOR098C/NUP1] | 2.91 ± 0.23 | 3.11 ± 0.16 | 3.1 ± 0.12 | 3.31 ± 0.091
31 | RAANQGALPPDLSLIVK [CYT1] | 2.95 ± 0.11 | 3 ± 0.074 | 3.03 ± 0.18 | 2.87 ± 0.074
32 | DPRHIQLLGDVMTYKGE [RPO31] | 2.91 ± 0.07 | 3.17 ± 0.055 | 2.79 ± 0.063 | 3.06 ± 0.048
33 | PAEHPFISAARYKPKSH [RPC37] | 2.99 ± 0.1 | 3.04 ± 0.082 | 2.66 ± 0.064 | 3.13 ± 0.066
34 | TFIYGYCDKNFRENMSK [PRE3] | 2.12 ± 0.079 | 2.17 ± 0.066 | 2.21 ± 0.092 | 2.65 ± 0.053
35 | FSMGHIRSSSVSLVAEA [MED4] | 1.52 ± 0.078 | 1.67 ± 0.057 | 1.31 ± 0.14 | 1.69 ± 0.033
36 | VRNYKPLINRLKHYNGY [SWI1] | 1.79 ± 0.048 | 2.2 ± 0.045 | 2.57 ± 0.06 | 2.54 ± 0.039
37 | SLVSTQSSSSTRSHEYG [REC8] | 2.86 ± 0.08 | 3.04 ± 0.11 | 2.72 ± 0.057 | 3.19 ± 0.12
38 | NLKDLNNVKQMVMAGSK [RPO21] | 1.81 ± 0.12 | 1.95 ± 0.12 |  | 1.92 ± 0.077
39 | NAPAWFKLSSESVIEQI [RPS13] | 1.98 ± 0.064 | 1.73 ± 0.054 | 2.34 ± 0.13 | 2.48 ± 0.067
40 | YSLIRETNGYDPFSIYG [SNF5] | 1.23 ± 0.056 | 1.31 ± 0.088 | 1.15 ± 0.18 | 1.06 ± 0.084
